Reference: paper PMC11633510

How the values were obtained:
Recombinant Protein A [1] = target: Recombinant Protein A (UniProt P38507); test: MetaSPR; triple-layer (Ti-Au-Ag-Au) nanocup array chip, 96-well; Protein A (20 µg/mL in CBS buffer) immobilised 16 h, blocked with 1% BSA; IgG 0.1-66.7 nM in PBS; 10 min association, 15 min dissociation
Recombinant Protein A [2] = target: Recombinant Protein A (UniProt P38507); test: MetaSPR; double-layer (Ti-Ag-Au) nanocup array chip, 96-well; Protein A (20 µg/mL in CBS buffer) immobilised 16 h, blocked with 1% BSA; IgG 0.1-66.7 nM in PBS; 10 min association, 15 min dissociation
Recombinant Protein A [3] = target: Recombinant Protein A (UniProt P38507); test: MetaSPR; single-layer (Ti-Au) nanocup array chip, 96-well; Protein A (20 µg/mL in CBS buffer) immobilised 16 h, blocked with 1% BSA; IgG 0.1-66.7 nM in PBS; 10 min association, 15 min dissociation
Recombinant Protein A [4] = target: Recombinant Protein A (UniProt P38507); test: MetaSPR; quantitative detection by differential absorption spectra, dual-wavelength OD difference (OD615-OD590); triple-layer chip; Protein A immobilised; IgG 0-10 µg/mL
Recombinant Protein A [5] = target: Recombinant Protein A (UniProt P38507); test: MetaSPR; quadruple-layer (Ti-Ag-Au-Ag-Au) nanocup array chip, 96-well; Protein A (20 µg/mL in CBS buffer) immobilised 16 h, blocked with 1% BSA; IgG 0.1-66.7 nM in PBS; 10 min association, 15 min dissociation

Work on “Immunoglobulin Antigen (Human IgG) (antibody)” yielded a Kd (Recombinant Protein A [1]) of 0.122 nM, a Kd (Recombinant Protein A [2]) of 0.116 nM and a Kd (Recombinant Protein A [3]) of 0.24 nM. For the same substance, the maximum reaction value (dual-wavelength OD difference) at the highest IgG concentration (10 µg/mL) (Recombinant Protein A [4]) was 0.435 and the Kd (Recombinant Protein A [5]) was 0.218 nM.
